Biological target: the molecule itself
Assay: crystal structure; X-ray, 1.85 Å, SAD phasing with SeMet protein, then molecular replacement into the wild-type crystal; three molecules in the asymmetric unit

B1: ORF212 tailspike protein (TSP3) of E. coli O157:H7 phage CBA120 (enzyme, UniProt G3M191 1-627, looked up)
chain: MISQFNQPRGSTSIEVNKQSIARNFGVKEDEVIYFTAGIDLSGFKVIYDESTQRAYSLPFGIVSGTTAISLDERAILTHSAGSVDLGELAVSREEYVTLPGSFNFGHTINVKNELLVHDDKKYRWDGSLPKVVAAGSTPDSSGGVGLGAWLSVGDAALRAELNTKVSDGTFPATIKYKYGLPSVIDGAIYRTVQDKLDDFVFLEDFGGKDDAGSTDNSIAFRKAFASGARKIRLRGSGVYGMATRDIELPAKYEIIGNAKNPEIKYLGTDTSFTMFTLTGSGPASNQWKQGGMFRDLIISSDVKINWMLGRHVQNLDYDRVFFYNSATVLNNYHYVNFTRCERWGSAFIGRADLNTIQFISESPKFHLCFSSGSPIDVWDTADLAITKCTMFAGDYAVRTRVTQKQVTAPDLFAGYPVLITCSVFDAVRGHAWDLEGSVYSTITGNLVSAGRDTNSHGAYIKGGRSLSLTGNVFTYCGNYGLVLEDVQQSGFVGNVFNGNKTGGLGTLACKDLSIVGGSMGTTYVRGGYYTQPVGYSDISSNSTGILLSGVAFDEALTTKVYLDTSITTRNKVINCSGVPDTIARGSTANRPANPQASYQYYDTTLGIPIWWNSVSGTWKNAAGADV
notes: also called CBA120 TSP3; wild-type TSP3
With B1 the “stoichiometry N” value was 3.

— PMC6517402 (Scientific Reports, 2019)
